Experimental findings from patent US12559740B2, “Process for the direct enzymatic conversion of amino sugars; enzyme and compositions for use in the process” (GLYCOMICS AND GLYCAN BIOENGINEERING RESEARCH CENTER …, priority 2021, dated 2026) are described below.

This series deals with N[C@H]1C(O)O[C@H](CO)[C@@H](O)[C@@H]1O. The series can be described thus: Kinetic analysis of Ef-GPDA with glucosamine (conversion of glucosamine to fructose, photometric at 505 nm after resorcinol derivatization). The class given is biochemical, Enterococcus faecalis. The settings on record: other: substrate glucosamine (3 to 140 mM solutions, 30 μL), MES buffer pH 7.0, MgCl2, 40° C., 10 h. On the procedure:
Reaction mixtures (50 μL) were centrifuged at 12000 g for 10 min at room temperature, and 40 μL samples of the supernatant were taken and mixed with 35 μL conc. HCl and 5 μL of resorcinol-thiourea reagent (consisting of 0.1% (w/V) resorcinol and 0.25% (w/V) in glacial acetic acid). The mixed samples were incubated at 80° C. for 10 min and then centrifuged at 12000 g for 10 min at room temperature. The supernatants (50 μL) were then transferred to 96 microplate and the absorbance at λ=505 nm measured with a microplate photometer (Thermo Multiskan).
Genes encoding the wild-type or mutant variants of GDPA were synthesized in an E. coli codon-optimized form (Genscript) and delivered in a pUC19 vector with ampicillin resistance. The protein-encoding insert was cut via Ndel and Xhol restriction enzymes (Takara) and ligated in a pET30a expression vector via T4 Ligase (Takara). The GPDA enzymes were prepared as follows: a fresh single colony from an LB agar plate supplemented with […] Kanamycin and used to grow E. coli strain BL21 comprising the respective plasmid was used to inoculate 5 mL of LB liquid medium with the same concentration of Kanamycin. Following incubation of said culture over night at 120 rpm and 37° C. 2 mL of the overnight culture was used to inoculate 400 mL of the same medium in a 2 L flask. […]

For orientation: Km means the concentration of substrate that gives half-maximal velocity. For orientation: Vmax means the rate approached at saturating substrate. Regarding “Ef-GPDA, glucosamine-6-phosphate deaminase from Enterococcus faecalis, wild type, SEQ ID NO: 1 (Enterococcus faecalis V583)”, the Km came to 21.8 ± 2.3 mM and the Vmax is 4.0 ± 0.2 µmol/min.
